According to the Human Domainome abundance scans (Beltran et al. 2025):
± gives the uncertainty stated by the source.

B1: PMS1 protein homolog 1, residues 572 to 637; numbered along this chain, P54277 (parent)
chain: KKPMSASALFVQDHRPQFLIENPKTSLEDATLQIEELWKTLSEEEKLKYEEKATKDLERYNSQMKR

Variants of: B1
Assay: abundance fitness (aPCA) (normalised: wild type 0, dead -1); higher = more abundant; growth selection in yeast, the domain comes from the species named
Settings: Homo sapiens

Abundance fitness, by site and new letter:
D29: N -0.119 ± 0.13
S5: G -0.032 ± 0.087, R -0.293 ± 0.1, D -0.341 ± 0.34, I -0.336 ± 0.28, K -0.179 ± 0.12, M -0.411 ± 0.13, W -0.874 ± 0.2, A -0.252 ± 0.13, E -0.031 ± 0.13, P 0.322 ± 0.3, C -0.333 ± 0.44, L -0.283 ± 0.12, T 0.095 ± 0.077
L27: C -0.384 ± 0.19, Y -0.079 ± 0.16, F 0.224 ± 0.23, V -0.132 ± 0.13, T -0.101 ± 0.14, P 0.057 ± 0.22, M -0.089 ± 0.17, G -0.308 ± 0.12, E -0.538 ± 0.41, A -0.127 ± 0.18, Q -0.532 ± 0.31, S -0.048 ± 0.14
S26: D -0.102 ± 0.11, Q -0.327 ± 0.1, R -0.282 ± 0.062, W -1.3 ± 0.11, C -0.111 ± 0.069, I -0.605 ± 0.053, Y -0.861 ± 0.061, M -0.482 ± 0.067, A -0.229 ± 0.063, F -0.775 ± 0.08, E -0.317 ± 0.12, G -0.223 ± 0.098, H -0.349 ± 0.06, K -0.155 ± 0.067, P -0.21 ± 0.06, V -0.654 ± 0.073, L -0.538 ± 0.053, T -0.061 ± 0.042, N -0.167 ± 0.068
L9: K -0.044 ± 0.19, Q 0.032 ± 0.16, T -0.287 ± 0.15, F -0.131 ± 0.14, G -0.308 ± 0.11, P -0.98 ± 0.25, V -0.2 ± 0.17, M -0.167 ± 0.47, A -0.61 ± 0.23, S -0.254 ± 0.12, Y -0.155 ± 0.17, N -0.467 ± 0.27, R -0.017 ± 0.076
K1: V -0.191 ± 0.28, R -0.216 ± 0.13, C 0.184 ± 0.43, E -0.022 ± 0.14, F -0.498 ± 0.26, S -0.602 ± 0.2, M -0.057 ± 0.26, Y -0.174 ± 0.3, G -0.225 ± 0.11
F10: W -0.267 ± 0.15, K -0.368 ± 0.11, S -0.422 ± 0.13, A -0.608 ± 0.12, M -0.433 ± 0.26, E -0.483 ± 0.12, V -0.812 ± 0.12, Q -0.466 ± 0.13, L -0.731 ± 0.12, R -0.651 ± 0.074, H -0.183 ± 0.39, P -0.686 ± 0.22, G -0.791 ± 0.1, D -0.487 ± 0.2, N -0.655 ± 0.16
A8: G -0.223 ± 0.13, W -0.347 ± 0.19, R -0.119 ± 0.093, E 0.147 ± 0.31, D -0.162 ± 0.45, L -0.288 ± 0.41, V -0.457 ± 0.15
E35: W -0.774 ± 0.16, F -0.251 ± 0.31, A -0.2 ± 0.13, D -0.86 ± 0.4, V -0.548 ± 0.12, P -0.14 ± 0.31, I -0.33 ± 0.33, T -0.207 ± 0.15, Q -0.414 ± 0.47, H -0.171 ± 0.12, N -0.389 ± 0.26, S -0.189 ± 0.1, K -0.26 ± 0.28, M -0.038 ± 0.14, R -0.142 ± 0.081, C -0.274 ± 0.098
V11: I -0.432 ± 0.23
S7: L -0.087 ± 0.09, K 0.069 ± 0.2, M 0.235 ± 0.25, E 0.017 ± 0.1, T -0.122 ± 0.12, W -0.388 ± 0.24, D 0.036 ± 0.25, F -0.108 ± 0.4, C -0.28 ± 0.22, H -0.144 ± 0.16, G -0.134 ± 0.083, A 0.007 ± 0.096, N -0.055 ± 0.18, R 0.121 ± 0.076, Q 0.176 ± 0.12
D13: G -0.844 ± 0.29, C -0.66 ± 0.28, N -0.556 ± 0.25
H14: Y -0.063 ± 0.089
E21: D -0.446 ± 0.24
L37: P -0.995 ± 0.4, A -0.052 ± 0.14, T -0.123 ± 0.27, W -0.386 ± 0.094, V -0.127 ± 0.12, G -0.175 ± 0.082, Y -0.459 ± 0.35, E -0.359 ± 0.2, R -0.091 ± 0.15, I -0.357 ± 0.15, S -0.083 ± 0.11, H -0.01 ± 0.28, K 0.116 ± 0.13, M -0.319 ± 0.26, C -0.278 ± 0.42
A30: Q -0.439 ± 0.41, R -0.666 ± 0.15, E -0.414 ± 0.21, L -0.634 ± 0.38, W -0.632 ± 0.16, V -0.29 ± 0.17, G -0.401 ± 0.14, T -0.668 ± 0.25, H -0.34 ± 0.32
K2: P -0.201 ± 0.23, G -0.696 ± 0.25, F -0.242 ± 0.41, E -0.433 ± 0.11, R -0.332 ± 0.11, S -0.201 ± 0.098, I -0.475 ± 0.42, Q -0.545 ± 0.15, L -0.08 ± 0.39, C -0.095 ± 0.16, H 0.115 ± 0.46, M -0.321 ± 0.16
P16: E -0.087 ± 0.11, C -0.357 ± 0.11, S -0.214 ± 0.16, K -0.17 ± 0.14, L -0.401 ± 0.12, G -0.244 ± 0.068, T -0.159 ± 0.25, M -0.447 ± 0.21, A -0.06 ± 0.099, R -0.08 ± 0.12, D 0.118 ± 0.15, V -0.47 ± 0.12, Y -0.198 ± 0.18, W -0.421 ± 0.17, Q -0.041 ± 0.16, I -0.224 ± 0.25
K39: P -0.252 ± 0.18, E -0.095 ± 0.11, G -0.875 ± 0.12, Q 0.017 ± 0.26, L -0.22 ± 0.18, W -0.507 ± 0.21, R -0.285 ± 0.099, D -0.308 ± 0.26, I -0.535 ± 0.46, S -0.081 ± 0.25, V -0.465 ± 0.23, H -0.205 ± 0.32, Y -0.104 ± 0.39, A -0.062 ± 0.1, C -0.156 ± 0.17
R15: N -0.769 ± 0.23, T -0.111 ± 0.27, S -0.41 ± 0.16, G -0.559 ± 0.075, A -0.039 ± 0.13, L 0.003 ± 0.084, E -0.409 ± 0.14, F 0.035 ± 0.43, M 0.07 ± 0.075, D -0.729 ± 0.11, P -0.541 ± 0.14, W -0.408 ± 0.12, V 0.033 ± 0.086, Q -0.336 ± 0.12, H -0.227 ± 0.15, K -0.38 ± 0.23
T40: L -0.114 ± 0.073, C 0.115 ± 0.21, I -0.165 ± 0.1, A -0.294 ± 0.12, P -0.537 ± 0.14, G -0.041 ± 0.075, N -0.086 ± 0.12, F -0.041 ± 0.13, K -0.099 ± 0.12, R -0.125 ± 0.071, Q -0.094 ± 0.095, W -0.253 ± 0.12, E -0.028 ± 0.18, D -0.101 ± 0.11, H -0.087 ± 0.1, M -0.165 ± 0.15, V -0.239 ± 0.1, S -0.128 ± 0.092, Y -0.387 ± 0.18
Q33: D -0.24 ± 0.38, E -0.124 ± 0.095, W -0.696 ± 0.16, P -0.579 ± 0.17, M -0.283 ± 0.11, V -0.329 ± 0.17, K -0.06 ± 0.2, R -0.229 ± 0.18, G -0.405 ± 0.12, T -0.454 ± 0.22, A -0.05 ± 0.12, S -0.23 ± 0.16
M4: R -0.106 ± 0.077, T -0.05 ± 0.096, F -0.12 ± 0.18, A -0.072 ± 0.072, C -0.627 ± 0.18, P -0.064 ± 0.18, K 0.057 ± 0.14, H -0.044 ± 0.14, Q 0.043 ± 0.12, E -0.002 ± 0.11, L -0.017 ± 0.096, Y -0.091 ± 0.15, V -0.091 ± 0.065, N -0.157 ± 0.47, W -0.485 ± 0.11
Q12: T -0.54 ± 0.26, A 0.258 ± 0.27
L32: E -0.144 ± 0.13, I -0.172 ± 0.15, M 0.043 ± 0.2, G -0.261 ± 0.092, V -0.117 ± 0.18, R 0.019 ± 0.062, D -0.283 ± 0.18, K 0.002 ± 0.14, Q -0.15 ± 0.18, P -0.349 ± 0.13, S -0.18 ± 0.13, T -0.246 ± 0.28, W -0.156 ± 0.088
A6: G -0.306 ± 0.083, Q -0.493 ± 0.18, C -0.281 ± 0.29, P -0.38 ± 0.21, K -0.348 ± 0.17, E -0.607 ± 0.09, M -0.704 ± 0.15, S -0.195 ± 0.22, T -0.646 ± 0.12, W -1.87 ± 0.29, I -1.17 ± 0.23, R -0.637 ± 0.072, D -0.665 ± 0.25, Y -0.925 ± 0.45
T25: K -0.302 ± 0.15, N -0.192 ± 0.12, F 0.201 ± 0.29, H -0.395 ± 0.33, R -0.317 ± 0.095, A 0.042 ± 0.081, V 0.116 ± 0.12, L -0.096 ± 0.092, M -0.156 ± 0.17, P -0.627 ± 0.14, Q -0.143 ± 0.12, W -0.531 ± 0.091, G -0.387 ± 0.094, C -0.159 ± 0.16
P3: K -0.368 ± 0.34, T 0.049 ± 0.2, M -0.333 ± 0.4, A -0.464 ± 0.19, N 0.031 ± 0.25, S -0.605 ± 0.34, W -0.545 ± 0.29, I -0.305 ± 0.45, C -0.358 ± 0.28
W38: L -1.01 ± 0.14, A -0.369 ± 0.22, R -0.292 ± 0.13, T -0.343 ± 0.19, G -0.304 ± 0.19, D 0.097 ± 0.46, V -0.504 ± 0.15, F -0.299 ± 0.17, E -0.135 ± 0.13, H 0.034 ± 0.26
T31: P -0.599 ± 0.34, S -0.335 ± 0.26, F -0.325 ± 0.44, E -0.142 ± 0.25, R -0.089 ± 0.13, D -0.11 ± 0.48, M -0.516 ± 0.18, L -0.433 ± 0.1, Q -0.359 ± 0.28, G -0.321 ± 0.14
L41: I -0.202 ± 0.17, F -0.733 ± 0.1, C -0.196 ± 0.13, D -0.319 ± 0.094, E -0.295 ± 0.11, G -0.315 ± 0.066, H -0.467 ± 0.14
